Laboratory results as given in patent publication US20250043022A1 (JIANGSU HENGRUI PHARMACEUTICALS, published 2025).
One block for each binder: values may come before it.

Columns and labels:
[1] = target: T1, human PSMA on cells (Cho-hPSMA, CHO-K1 cells overexpressing full-length human PSMA) (human, UniProt Q04609 1-750); assay: hybridoma screening on cells
T1 construct: whole, on cells; also called cell surface PSMA; PSMA-expressing Lncap cells

[2] = target: hIL5 (human, UniProt P05113 20-134); assay: ELISA
[3] = target: hTSLP (human, UniProt Q969D9 29-159); assay: ELISA
[4] = target: T1, human PSMA on cells (Cho-hPSMA, CHO-K1 …); assay: flow cytometry, Cho-hPSMA; antibody at 100 nM
Experimental: (§1) Experiment 1: Cho-hPSMA was cultured in F12 medium with 10% FBS. The medium to which cells were inoculated was incubated in a 37° C., 5% CO₂ incubator for 2 days, and cells were added to a cell plate at 1×10⁵ cells/well and washed by centrifugation. Antibodies were serially diluted, and the antibody solutions were added to the cell plate at 100 μL/well. The plate was incubated at 4° C. for 1 h and then washed. An AF488-Goat Anti-human IgG Fc fluorescent secondary antibody dilution (1:400) was added to the cell plate at 100 μL/well, and the plate was incubated at 4° C. for 1 h and then washed. PBS was added to the cell plate at 100 μL/well before plate reading.
(§2) Experiment 3: The binding activity of bispecific antibodies was measured using the method of experiment 1.

[5] = target: T1, human PSMA on cells (Cho-hPSMA, CHO-K1 …); assay: flow cytometry, Cho-hPSMA; antibody at 4 nM
Experimental: as §1, §2

[6] = target: T1, human PSMA on cells (Cho-hPSMA, CHO-K1 …); assay: flow cytometry, Cho-hPSMA; antibody at 0.8 nM
Experimental: as §1, §2

[7] = target: T1, human PSMA on cells (Cho-hPSMA, CHO-K1 …); assay: flow cytometry, Cho-hPSMA; antibody at 20 nM
Experimental: as §1, §2

T1 sequence (Q04609 whole entry): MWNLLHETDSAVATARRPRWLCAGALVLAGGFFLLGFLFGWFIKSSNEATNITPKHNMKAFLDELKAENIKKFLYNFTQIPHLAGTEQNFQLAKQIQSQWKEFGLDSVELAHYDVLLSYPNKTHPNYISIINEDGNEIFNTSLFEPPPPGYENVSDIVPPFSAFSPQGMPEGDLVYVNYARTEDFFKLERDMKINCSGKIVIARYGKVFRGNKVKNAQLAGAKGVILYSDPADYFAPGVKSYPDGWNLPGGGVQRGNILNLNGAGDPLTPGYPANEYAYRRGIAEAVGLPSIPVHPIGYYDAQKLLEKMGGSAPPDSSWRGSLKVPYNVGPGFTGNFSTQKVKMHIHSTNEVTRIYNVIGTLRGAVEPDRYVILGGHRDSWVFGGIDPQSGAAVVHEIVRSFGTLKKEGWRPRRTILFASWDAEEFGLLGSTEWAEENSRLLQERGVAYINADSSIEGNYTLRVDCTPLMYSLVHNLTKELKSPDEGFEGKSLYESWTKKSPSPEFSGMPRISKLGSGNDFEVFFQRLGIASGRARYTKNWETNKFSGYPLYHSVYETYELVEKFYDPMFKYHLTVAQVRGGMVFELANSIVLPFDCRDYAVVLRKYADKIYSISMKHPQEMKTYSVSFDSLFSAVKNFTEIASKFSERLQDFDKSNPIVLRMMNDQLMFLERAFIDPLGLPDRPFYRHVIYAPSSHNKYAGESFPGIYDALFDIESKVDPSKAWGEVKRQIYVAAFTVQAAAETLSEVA

B1: murine antibody 2 (antibody, V domains shown)
VH: EVKLVESEGGLVQPGSSMKLSCTASGFTFSDYYMAWVRQVPEKGLEWVANINFDGSSTYYLDSLKSRFIISRDNAKNILYLQMSSLKSEDTATYYCARDLDGYYGYFDVWGTGTTVTVSS
VL: QIVLTQSPAIMSASPGEKVTISCSASSSVSHMYWYQQKPGSSPKPWIYRTSNLASGVPARFSGSGSGTSYSLTISSMEAEDAATYYCQQYHSYPLMFGAGTKLELK
notes: murine hybridoma antibody
binding result [1]: binds

B3: murine antibody 50 (antibody, V domains shown)
VH: QVQLQQSGAELARPGASVKLSCKASGFTFTNYGISWVKQRTGQGLEWIGEIYPRSGNTYYNTNFKGEATLTADKSSSTAFMELRSLTSEDSAVYFCARNPFTTVVEGFAFWGQGTLVTVSA
VL: DVFMTQSPLSLPVSLGDQASISCRSSQSILHSNGNTYLEWYLQKPGQSPKLLIYRVSNRFSGVPDRFSGSGSGTDFTLKISRVEAEDLGVYYCFQGLHVPPTFGAGTKLELK
notes: murine hybridoma antibody
binding result [1]: binds

B4: murine antibody 43 (antibody, V domains shown)
VH: EVKFEESGGGLVQPGGSMKLSCVASGFTFSNYWMNWLRQSPEKGLEWVAQVRLKSDNYATHYAESVKGRFTISRDDSKSSAYLQMNNLRAEDTGIYYCSENYYGPAGPFDFWGQGTTLTVSS
VL: DIVMTQSQKFMSTTVGDRVSITCKASQNVHTSVAWYQQKPGQSPKLLIYSASNRYSGVPDRFTGSGSGTDFTLTINNMQSEDLADYFCQQYSSYPLTFGVGTKLELK
notes: murine hybridoma antibody
binding result [1]: binds

B6: HJ-9 (bispecific antibody)
chain 1: not shown
chain 2: DIQMTQSPSSVSASVGDRVTITCRASQDIANYLSWYQQKPGKSPKLLIYGTSNLEVGVPSRFSGSRSGTDFTLTISSLQPEDFATYYCLQDKEFPRTFGGGTKVEIKRTVASSGAPRFLTCPKASVVSVGKDATLSSQIVGNPFPQVSWEKDKQPVTAGVRFRLAQDGDLYRLKILDLQLSDSGQYVSRARNAHGEAFACLGLQVDAEA
chain 3: EVQLVQSGAEVKKPGSSVKVSCKASGYTFSNYLIEWVRQAPGQGLEWIGVIDPGVGDTNYNENFKGRATLTADKSTSTAYIELSSLRSEDTAVYYCAREDNTGTAFDYWGQGTTVTVSSASTKGPSVFPLAPSSKSTSGGTAALGCLVKDYFPEPVTVSWNSGALTSGVHTFPAVLQSSGLYSLSSVVTVPSSSLGTQTYICNVNHKPSNTKVDKKVEPKSCDKTHTCPPCPAPEAAGGPSVFLFPPKPKDTLMISRTPEVTCVVVDVSHEDPEVKFNWYVDGVEVHNAKTKPREEQYNSTYRVVSVLTVLHQDWLNGKEYKCKVSNKALPAPIEKTISKAKGQPREPQVCTLPPSREEMTKNQVSLSCAVKGFYPSDIAVEWESNGQPENNYKTTPPVLDSDGSFFLVSKLTVDKSRWQQGNVFSCSVMHEALHNHYTQKSLSLSPGK
chain 4: SIVMTQTPLSLSVTPGQPASISCKASQSVSSDVTWYLQKPGQSPQLLIYYVSEHYTGVPDRFSGSGYGTDFTLKISRVEAEDVGVYYCQQHHRFPLTFGQGTKLEIKRTVAAPSVFIFPPSDEQLKSGTASVVCLLNNFYPREAKVQWKVDNALQSGNSQESVTEQDSKDSTYSLSSTLTLSKADYEKHKVYACEVTHQGLSSPVTKSFNRGEC
EC50 [2]: 10.9 nM
EC50 [3]: 3.18 nM

B7: HJ-11 (bispecific antibody)
chain 1: not shown
chain 2: DIQMTQSPSSVSASVGDRVTITCRASQDIANYLSWYQQKPGKSPKLLIYGTSNLEVGVPSRFSGSRSGTDFTLTISSLQPEDFATYYCLQDKEFPRTFGGGTKVEIKRTVASSGCPRFLTRPKASVVSVGKDATLSCQIVGNPFPQVSWEKDKQPVTAGVRFRLAQDGDLYRLKILDLQLSDSGQYVCRARNAHGEAFACLGLQVDAEA
chain 3: EVQLVQSGAEVKKPGSSVKVSCKASGYTFSNYLIEWVRQAPGQGLEWIGVIDPGVGDTNYNENFKGRATLTADKSTSTAYIELSSLRSEDTAVYYCAREDNTGTAFDYWGQGTTVTVSSASTKGPSVFPLAPSSKSTSGGTAALGCLVKDYFPEPVTVSWNSGALTSGVHTFPAVLQSSGLYSLSSVVTVPSSSLGTQTYICNVNHKPSNTKVDKKVEPKSCDKTHTCPPCPAPEAAGGPSVFLFPPKPKDTLMISRTPEVTCVVVDVSHEDPEVKFNWYVDGVEVHNAKTKPREEQYNSTYRVVSVLTVLHQDWLNGKEYKCKVSNKALPAPIEKTISKAKGQPREPQVCTLPPSREEMTKNQVSLSCAVKGFYPSDIAVEWESNGQPENNYKTTPPVLDSDGSFFLVSKLTVDKSRWQQGNVFSCSVMHEALHNHYTQKSLSLSPGK
chain 4: SIVMTQTPLSLSVTPGQPASISCKASQSVSSDVTWYLQKPGQSPQLLIYYVSEHYTGVPDRFSGSGYGTDFTLKISRVEAEDVGVYYCQQHHRFPLTFGQGTKLEIKRTVAAPSVFIFPPSDEQLKSGTASVVCLLNNFYPREAKVQWKVDNALQSGNSQESVTEQDSKDSTYSLSSTLTLSKADYEKHKVYACEVTHQGLSSPVTKSFNRGEC
EC50 [2]: 9.46 nM
EC50 [3]: 3 nM

Other lines, results leading:

binding result [1]: binds
B2: murine antibody 27 (antibody, V domains shown)
VH: EVKLVESEGGLVQPGSSMKLSCTASGFTFSDYYMAWVRQVPEKGLEWVANINYDGSSTYYLDSLKSRFIISRDNAKNILYLQMSSLKSEDTATYYCARDLDGYYGYFDVWGTGTTVTVSS
VL: QIVLTQSPAIMSASPGEKVTISCSASSSVSYMYWYQQKPGSSPKPWIYRTSNLASGVPARFSGSGSGTSYSLTISSMEAEDAATYYCQQYHSYPLTFGAGTKLELK
notes: murine hybridoma antibody

binding result [1]: binds
B5: murine antibody 46 (antibody, V domains shown)
VH: EVQLVESGGDLVKPGGSLKLSCAASGFTFSNYGMSWVRQTPDKRIKWVATIGSGGGYTYYSDSVKGRFTISRDNAKNTLYLQMSSLKSEDTAIYYCVRHPQIGYWGQGTLVTVSA
VL: DIVMTQSQKFMSTTVGDRVTITCKASQSVGTAVAWYQQKPGQSPKLLIYSASSRYTGVPDRFTGSGSGTDFTLTITNMQSEDLADYFCHQYSSYPLTFGGGTKLEIK
notes: murine hybridoma antibody

EC50 [2]: 20.8 nM
EC50 [3]: 3.17 nM
B8: HJ-10 (bispecific antibody)
chain 1: not shown
chain 2: DIQMTQSPSSVSASVGDRVTITCRASQDIANYLSWYQQKPGKSPKLLIYGTSNLEVGVPSRFSGSRSGTDFTLTISSLQPEDFATYYCLQDKEFPRTFGGGTKVEIKRTVASSGAPRFLTRPKASVVSVGKDATLSCQIVGNPFPQVSWEKDKQPVTAGVRFRLAQDGDLYRLKILDLQLSDSGQYVCRARNAHGEAFACLGLQVDAEA
chain 3: EVQLVQSGAEVKKPGSSVKVSCKASGYTFSNYLIEWVRQAPGQGLEWIGVIDPGVGDTNYNENFKGRATLTADKSTSTAYIELSSLRSEDTAVYYCAREDNTGTAFDYWGQGTTVTVSSASTKGPSVFPLAPSSKSTSGGTAALGCLVKDYFPEPVTVSWNSGALTSGVHTFPAVLQSSGLYSLSSVVTVPSSSLGTQTYICNVNHKPSNTKVDKKVEPKSCDKTHTCPPCPAPEAAGGPSVFLFPPKPKDTLMISRTPEVTCVVVDVSHEDPEVKFNWYVDGVEVHNAKTKPREEQYNSTYRVVSVLTVLHQDWLNGKEYKCKVSNKALPAPIEKTISKAKGQPREPQVCTLPPSREEMTKNQVSLSCAVKGFYPSDIAVEWESNGQPENNYKTTPPVLDSDGSFFLVSKLTVDKSRWQQGNVFSCSVMHEALHNHYTQKSLSLSPGK
chain 4: SIVMTQTPLSLSVTPGQPASISCKASQSVSSDVTWYLQKPGQSPQLLIYYVSEHYTGVPDRFSGSGYGTDFTLKISRVEAEDVGVYYCQQHHRFPLTFGQGTKLEIKRTVAAPSVFIFPPSDEQLKSGTASVVCLLNNFYPREAKVQWKVDNALQSGNSQESVTEQDSKDSTYSLSSTLTLSKADYEKHKVYACEVTHQGLSSPVTKSFNRGEC

fluorescence intensity [4]: 26900
fluorescence intensity [5]: 27800
fluorescence intensity [6]: 15000
fluorescence intensity [7]: 30700
B9: 15-F2 (bispecific antibody)
heavy 1: not shown
light 1: DIQMTQSPSSLSASVGDRVTITCKASQGVDTAVAWYQQKPGKSPKLLIYWASTRHTGVPDRFSGSGSGTDFTLTISSLQPEDVATYYCQQYSRYPLTFGQGTKLEIKRTVAAPSVFIFPPSDEQLKSGTASVVCLLNNFYPREAKVQWKVDNALQSGNSQESVTEQDSKDSTYSLSSTLTLSKADYEKHKVYACEVTHQGLSSPVTKSFNRGEC
heavy 2: not shown
light 2: not shown
notes: PSMA x CD3, Format 2

binding result [1]: binds
B10: murine antibody 19 (antibody, V domains shown)
VH: EVKLVESEGGLVQPGSSMKLSCTASGFTFSDYYMAWVRQVPERGLEWVANINYDGSSTYYLDSLKSRFIISRDNAKNILYLQMSSLKSEDTATYYCARGGDYWDAMDYWGQGTSVTVSS
VL: DIQMTQTTSSLSASLGDRVTISCRASQDISKYLNWYQQKPDGTVKLLIYYTSSLHSGVPSRFSGSGSGTDYSLTISNLEQEDIATYFCQQGNRLPRTFGGGTKLEIK
notes: murine hybridoma antibody

binding result [1]: binds
B11: murine antibody 71 (antibody, V domains shown)
VH: QVQLVETGGGLVRPGNSLKLSCVTSGFTFSNYRMHWLRQPPGKRLEWIAVITVKSDNYGSSYAESVKGRFAISRDDSKSSVYLEMNRLREEDTATYFCSRELGQVLVFWGQGTLVTVSA
VL: DVVVTQTPLSLPVSLGDQASISCRSSQSLVHSYGNTYLHWYLQKPGQSPKLLIYKVSNRFSGVPDRFSGSGSGTDFTLKISRVEAEDLGVYFCSQTTHVPWTFGGGTKLEIK
notes: murine hybridoma antibody

binding result [1]: binds
B12: murine antibody 15 (antibody, V domains shown)
VH: EFQLQQSGPELVKPGASVKISCKASGYSFTDHNMNWVKQSNGKSLEWIGLINPNYGTADYNQKFKGKATLTVDQSSTTAFMQFTSLTSEDSAVYYCARGSSLFAYWGQGTLVTVSA
VL: DIVMTQSHKFMSTSVGDRVNITCKASQGVDTAVAWYQQKPGQSPKLLIYWASTRHTGVPDRFTGSGSGTDFTLTISNVQSEDLADYFCQQYSRYPLTFGAGTKLELK
notes: murine hybridoma antibody
